The record followed here is patent publication US20210270842A1 (DYAX, published 2021).

The assay concerns the target T1, intact high molecular weight kininogen (HMWK) (Homo sapiens, UniProt P01042 19-644).
T1 construct: also called intact HMWK; 1-chain HMWK
T1 sequence: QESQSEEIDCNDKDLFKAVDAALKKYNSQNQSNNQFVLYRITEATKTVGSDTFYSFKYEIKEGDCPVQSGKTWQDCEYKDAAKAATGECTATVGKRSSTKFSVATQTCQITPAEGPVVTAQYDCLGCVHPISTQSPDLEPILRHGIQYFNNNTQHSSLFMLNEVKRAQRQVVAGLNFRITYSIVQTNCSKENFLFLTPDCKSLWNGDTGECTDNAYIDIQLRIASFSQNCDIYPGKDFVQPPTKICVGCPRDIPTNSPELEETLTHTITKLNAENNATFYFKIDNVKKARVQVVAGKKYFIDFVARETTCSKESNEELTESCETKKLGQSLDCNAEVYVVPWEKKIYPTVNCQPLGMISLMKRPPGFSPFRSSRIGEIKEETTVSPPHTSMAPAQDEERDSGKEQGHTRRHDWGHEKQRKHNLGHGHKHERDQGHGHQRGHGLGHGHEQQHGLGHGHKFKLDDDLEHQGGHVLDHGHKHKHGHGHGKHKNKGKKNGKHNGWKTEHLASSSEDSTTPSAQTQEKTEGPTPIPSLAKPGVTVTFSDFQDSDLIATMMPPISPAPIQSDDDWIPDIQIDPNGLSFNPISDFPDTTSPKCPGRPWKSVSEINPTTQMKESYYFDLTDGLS
Kind of assay: ELISA: Fab coated on 96-well plate, LowCross block, biotinylated antigen, streptavidin-HRP; signal over uncoated well. The method, then:
Thirty-six purified Fab clones (see Table 2 below) were assessed for binding to cleaved HWMK, intact HMWK, and LWMK using the immunoassay described in Example 1. Specifically, each of the purified Fab clones was immobilized on 96-well assay plates at a concentration of […]) in a total volume of 100 μL in PBS and incubated overnight at 2-8° C. The assay plates were blocked using LowCross blocking buffer. Biotinylated intact HMWK, biotinylated cleaved HMWK or biotinylated LMWK ([…]) was added to each well in a total volume of 100 μL and incubated for 2 hours prior to washing with a wash buffer. HRP-labeled streptavidin was added to each well at a concentration of 100 ng/mL, and the signal was developed using Ultra TMB Substrate. The signal to noise ratio was calculated using the signal observed upon the addition of the biotinylated protein to an uncoated well. (FIG. 2, panels A and B). Based on the ELISA results, the antibodies can be divided among 5 categories (Table 2).
In general terms: In an ELISA, binding on a coated surface is turned into a signal by an enzyme label.

B1: 559B-M0047-H01 (Fab, V domains shown)
VH: EVQLLESGGGLVQPGGSLRLSCAASGFTFSFYMMYWVRQAPGKGLEWVSSISSSGGFTRYADSVKGRFTISRDNSKNTLYLQMNSLRAEDTAVYYCARVRGLAVAAPDYWGQGTLVTVSS
VL: QSELTQPASVSGSPGQSITISCIGTSSDIGTYNYVSWYQQHPGKAPKLMIYDVNTRPSGVSDRFSGSKSGNTASLTISGLQAEDEADYYCSSYTTSVTWVFGGGTTLTVL
Take B1: the binding result is on record as “binds”.

B2: 559B-X0004-B05 (Fab, V domains shown)
VH: EVQLLESGGGLVQPGGSLRLSCAASGFTFHYRMMWVRQAPGKGLEWVSYISSSGGYTAYADSVKGRFTISRDNSKNTLYLQMNSLRAEDTAVYYCAAKRNRAFDIWGQGTMVTVSS
VL: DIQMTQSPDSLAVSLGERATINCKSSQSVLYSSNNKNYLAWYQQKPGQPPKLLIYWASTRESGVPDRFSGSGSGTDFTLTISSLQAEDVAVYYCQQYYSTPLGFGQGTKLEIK
With B2, the binding result is given as “binds”.

B3: 559B-M0003-C08 (Fab, V domains shown)
VH: EVQLLESGGGLVQPGGSLRLSCAASGFTFSPYMMYWVRQAPGKGLEWVSSISPSGGKTWYADSVKGRFTISRDNSKNTLYLQMNSLRAEDTAVYYCARLGGSSSYYYYYYYGMDVWGQGTTVTVSS
VL: QSALTQSPSASGTPGQRVTISCSGSSSNIGGNTVNWYQQFPGTAPKLLIYSNNQRPSGVPDRFSGSKSGTSASLAISGLQSEDEAIYYCASWDDRLNGHWVFGGGTRLTVL
In the case of B3, the binding result was “binds”.

B4: 559B-M0067-E02 (Fab, V domains shown)
VH: EVQLLESGGGLVQPGGSLRLSCAASGFTFSLYPMVWVRQAPGKGLEWVSSIYPSGGFTTYADSVKGRFTISRDNSKNTLYLQMNSLRAEDTAVYYCARSSRYYYYGMDVWGQGTTVTVSS
VL: QYELTQPPSMSGTPGQRVTISCSGSSSNIGSEYVYWFQQLPGTAPKLLIYRNDQRPSGVPDRFSGSKSGTSASLAISGLRSEDETDYYCSTWDDTLRTGVFGGGTKVTVL
Take B4: the binding result is “binds”.

B5: 559B-M0038-H03 (Fab, V domains shown)
VH: EVQLLESGGGLVQPGGSLRLSCAASGFTFSKYDMHWVRQAPGKGLEWVSRISSSGGKTEYADSVKGRFTISRDNSKNTLYLQMNSLRAEDTAVYYCAREYRYCTANTCSLYGMDVWGRGTTVTVSS
VL: DIQMTQSPSSLSASVGDRVAITCRTSQGVRSDFAWYQQTPGKAPRRLIYAAFILDNGVPSRFSGSGSGTEFTLTISSLQPEDFATYYCQQSYSTPLTFGGGTKVEMK
Regarding B5, the binding result was “binds”.

B6: 559B-M0061-G06 (Fab, V domains shown)
VH: EVQLLESGGGLVQPGGSLRLSCAASGFTFSKYTMWWVRQAPGKGLEWVSVISSSGGKTYYADSVKGRFTISRDNSKNTLYLQMNSLRAEDTAVYYCARTANRAFDIWGQGTMVTVSS
VL: DIQMTQSPAALSVSPGERATLSCRASQSVSSDLAWYQQKPGQAPRLLIHGASTRATGIPARFSGSGSGREFTLTISSLQSEDFAVYYCQQYNDWPPLFGPGTKVNIK
Turning to B6, the binding result is listed as “binds”.

B7: 559B-M0048-D12 (Fab, V domains shown)
VH: EVQLLESGGGLVQPGGSLRLSCAASGFTFSRYQMTWVRQAPGKGLEWVSSIGSSGGFTNYADSVKGRFTISRDNSKNTLYLQMNSLRAEDTAVYYCARLPANFYYYMDVWGKGTTVTVSS
VL: DIQMTQSPSSLSASVGDRVTITCRASQNIYSFLNWYQQKPGKAPKLLIYATSSLQSGVPSRFSGSGSGTDFTLTISSLQPEDFASYYCQQNYNIPWTFGQGTKVEIK
Consider B7, for which the binding result is listed as “binds”.

B8: 559B-M0039-D08 (Fab, V domains shown)
VH: EVQLLESGGGLVQPGGSLRLSCAASGFTFSNYAMQWVRQAPGKGLEWVSWIYSSGGPTYYADSVKGRFTISRDNSKNTLYLQMNSLRAEDTAVYYCARGLPGQPFDYWGQGTLVTVSS
VL: QSELTQPPSASGTPGQRVTISCSGSSSNIGNNYVYWYQQFPGTAPKLLIYRNNQRPSGVPDRFSGSKSGTSASLAISGLRSEDEADYYCATWDDRLSGWVFGGGTKLTVL
As to B8, the binding result was “binds”.

B9: 559B-M0021-G11 (Fab, V domains shown)
VH: EVQLLESGGGLVQPGGSLRLSCAASGFTFSPYPMTWVRQAPGKGLEWVSGISSSGGFTPYADSVKGRFTISRDNSKNTLYLQMNSLRAEDTAVYYCARMVRGVIKAFDIWGQGTMVTVSS
VL: QYELTQPPSASGTPGQRVTISCSGSSSNIGSHYVFWYQQLPGAAPKLLIYRNNQRPSGVPDRFSGSKSGTSASLAISGLRSEDEADYYCATWDNSLSAWVFGGGTKLTVL
B9: the binding result is recorded as “binds”.

B10: 559B-M0068-C07 (Fab, V domains shown)
VH: EVQLLESGGGLVQPGGSLRLSCAASGFTFSSYQMHWVRQAPGKGLEWVSGIYSSGGSTPYADSVKGRFTISRDNSKNTLYLQMNSLRAEDTAVYYCARGHHGMDVWGQGTTVTVSS
VL: DIQMTQSPSSVSASVGDRVTITCRASQGISSWLAWYQQKPGKAPKLLIYAASNLQSGVPSRFSGSGSGTDFTLTISSLQPEDFATYYCQKYNIAPYTFGQGTKLEIK
As to B10, the binding result is recorded as “binds”.

B11: 559B-M0038-F04 (Fab, V domains shown)
VH: EVQLLESGGGLVQPGGSLRLSCAASGFTFSKYEMMWVRQAPGKGLEWVSSISPSGGYTMYADSVKGRFTISRDNSKNTLYLQMNSLRAEDTAVYYCARHRSKWNDAPFDSWGQGTLVTVSS
VL: DIQMTQSPSSLSASVGDRVAITCRASQSIDTYLNWYQQKPGKAPKLLIYAASKLEDGVPSRFSGSGTGTDFTLTIRSLQPEDFASYFCQQSYSSPGITFGPGTKVEIK
Regarding B11, the binding result is reported as “binds”.

B12: 559B-M0039-H06 (Fab, V domains shown)
VH: EVQLLESGGGLVQPGGSLRLSCAASGFTFSAYDMHWVRQAPGKGLEWVSSIWPSGGGTYYADSVKGRFTISRDNSKNTLYLQMNSLRAEDTAVYYCARGDYDYGDFTDAFDIWGQGTMVTVSS
VL: QSALTQPASVSGSPGQSITISCTGTSSDVGSYNLVSWYQQHPGKAPKLMIYEGSKRPSGVPDRFSGSKSGNTASLIISGLQAEDEADYYCCSYAGSYSYVFGTGTRVTVL
With B12, the binding result is “binds”.

B13: 559B-M0042-E06 (Fab, V domains shown)
VH: EVQLLESGGGLVQPGGSLRLSCAASGFTFSMYKMSWVRQAPGKGLEWVSVISPSGGRTYYADSVKGRFTISRDNSKNTLYLQMNSLRAEDTAVYYCARGTRTSGLDYWGQGTLVTVSS
VL: QSALTQPASVSGSPGQSITISCTGTSSDVGGYKYVSWYQQHPGKAPKLVIYEVSNRPSGVSNRFSGSKSGNTASLTISGLQAEDEADYYCSSYTSSTTVVFGGGTKLTVL
B13: the binding result was “binds”.

B14: 559B-M0017-H08 (Fab, V domains shown)
VH: EVQLLESGGGLVQPGGSLRLSCAASGFTFSPYWMHWVRQAPGKGLEWVSVISPSGGGTGYADSVKGRFTISRDNSKNTLYLQMNSLRAEDTAVYYCARESRGSGSHEDYWGQGTLVTVSS
VL: DIQMTQSPATLSLSPGERATLSCRASQSVSSYLAWYQQKPGQAPRLLIYGASNRGTGIPARFSGSGSGTEFTLTISSLQSEDFAVYFCQQYKNWPNLTFGGGTKVDIK
Regarding B14, the binding result was “binds”.

B15: 559B-M0044-C05 (Fab, V domains shown)
VH: EVQLLESGGGLVQPGGSLRLSCAASGFTFSIYQMYWVRQAPGKGLEWVSSIYSSGGRTFYADSVKGRFTISRDNSKNTLYLQMNSLRAEDTAVYYCATRGSWYVGGNEYFQHWGQGTLVTVSS
VL: QSVLTQSPSLSLSPGQTASIPCSGDTLGNKFVSWYQQKPGQSPVLVIYQDTKRPSGIPERFSGSNSGNTATLTITGTQAMDEADYYCQVWDSNSYAFGPGTKVTVL
B15: the binding result is “binds”.

B16: 559B-M0019-E12 (Fab, V domains shown)
VH: EVQLLESGGGLVQPGGSLRLSCAASGFTFSGYNMYWVRQAPGKGLEWVSRISPSGGWTSYADSVKGRFTISRDNSKNTLYLQMNSLRAEDTAVYYCTRGQWMDWWGQGTMVTVSS
VL: DIQMTQSPSSLSASVGDRVIITCRASQNITGYLNWYQQKPGKAPNLLIYDASRMNTGVPSRFRGSGSGTDYILTIYKLEPEDIGTYFCQHTDDFSVTFGGGTKVDLK
Regarding B16, the binding result was “binds”.

B17: 559B-M0044-E09 (Fab, V domains shown)
VH: EVQLLESGGGLVQPGGSLRLSCAASGFTFSQYSMGWVRQAPGKGLEWVSSIYSSGGSTQYADSVKGRFTISRDNSKNTLYLQMNSLRAEDTATYYCARTRRGWFGEDYYYYMDVWGKGTTVTVSS
VL: DIQMTQSPSSLSASVGDRITITCRASQGIRNDVGWYQQKPGKAPQRLIYAASSLQSGVPSRFSGSGSGTEFTLTISSLQPEDFATYYCLQHNSYPLTFGGGTKVEIK
For B17, the binding result is listed as “binds”.

B18: 559B-M0036-G12 (Fab, V domains shown)
VH: EVQLLESGGGLVQPGGSLRLSCAASGFTFSRYYMAWVRQAPGKGLEWVSGIVPSGGQTGYADSVKGRFTISRDNSKNTLYLQMNSLRAEDTAVYYCARTRRGWFGEDYYYYMDVWGKGTLVTVSS
VL: DIQMTQSPGTLSLSPGERATVSCRASQSVGSTYLAWYQHKPGQAPRLLIYGASSRATGIPDRFSGSGSGTDFTLTISSLEPEDFAIYYCQHFHTSPPGITFGQGTRLEIK
As to B18, the binding result is “binds”.
